Results as given in paper PMC6101539 (Nucleic Acids Research, 2018).

What was measured:
SsbA = target: T1, SsbA (Bacillus subtilis, UniProt P37455 1-172); assay: EMSA
T1 sequence: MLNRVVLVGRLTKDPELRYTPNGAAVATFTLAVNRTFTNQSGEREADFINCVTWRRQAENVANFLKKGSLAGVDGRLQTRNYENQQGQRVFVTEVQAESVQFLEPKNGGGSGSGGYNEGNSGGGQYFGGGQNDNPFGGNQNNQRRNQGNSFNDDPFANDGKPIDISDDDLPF

RarA;PriA = target: T2, RarA;PriA (Bacillus subtilis;Bacillus subtilis, UniProt O34528;P94461 1-421;1-805, |); assay: EMSA
T2 sequence 1: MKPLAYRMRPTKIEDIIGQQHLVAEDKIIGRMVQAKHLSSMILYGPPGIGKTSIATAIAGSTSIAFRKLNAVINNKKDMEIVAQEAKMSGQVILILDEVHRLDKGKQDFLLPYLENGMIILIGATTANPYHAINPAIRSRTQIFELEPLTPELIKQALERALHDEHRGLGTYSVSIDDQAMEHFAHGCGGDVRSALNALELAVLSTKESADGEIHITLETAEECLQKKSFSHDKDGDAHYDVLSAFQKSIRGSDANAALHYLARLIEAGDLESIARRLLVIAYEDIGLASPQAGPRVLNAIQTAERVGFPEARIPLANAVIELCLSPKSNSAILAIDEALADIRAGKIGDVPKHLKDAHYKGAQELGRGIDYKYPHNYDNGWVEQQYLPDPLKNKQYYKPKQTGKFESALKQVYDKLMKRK
T2 sequence 2: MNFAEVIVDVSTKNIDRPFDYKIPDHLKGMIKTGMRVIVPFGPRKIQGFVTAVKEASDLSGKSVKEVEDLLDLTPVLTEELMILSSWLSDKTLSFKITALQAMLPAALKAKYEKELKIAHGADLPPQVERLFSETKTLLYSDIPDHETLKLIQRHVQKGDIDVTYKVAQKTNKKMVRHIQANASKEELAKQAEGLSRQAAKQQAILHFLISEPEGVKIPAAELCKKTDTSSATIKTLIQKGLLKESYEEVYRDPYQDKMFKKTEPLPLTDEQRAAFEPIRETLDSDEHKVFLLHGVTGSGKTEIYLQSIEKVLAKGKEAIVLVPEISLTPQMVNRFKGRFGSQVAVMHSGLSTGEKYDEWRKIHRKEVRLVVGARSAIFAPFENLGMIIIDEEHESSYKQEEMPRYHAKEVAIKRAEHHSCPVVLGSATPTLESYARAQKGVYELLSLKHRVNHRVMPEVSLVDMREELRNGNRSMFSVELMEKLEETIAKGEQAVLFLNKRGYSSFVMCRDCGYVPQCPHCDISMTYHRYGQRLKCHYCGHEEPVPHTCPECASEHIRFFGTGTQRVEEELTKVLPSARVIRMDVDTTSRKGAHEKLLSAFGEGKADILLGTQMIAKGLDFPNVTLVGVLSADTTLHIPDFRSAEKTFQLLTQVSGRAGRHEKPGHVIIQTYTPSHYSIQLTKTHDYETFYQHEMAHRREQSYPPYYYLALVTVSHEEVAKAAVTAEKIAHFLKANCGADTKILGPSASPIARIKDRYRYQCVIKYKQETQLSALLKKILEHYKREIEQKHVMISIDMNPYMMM

PriA = target: T3, PriA (Bacillus subtilis, UniProt P94461 1-805); assay: EMSA
T3 sequence: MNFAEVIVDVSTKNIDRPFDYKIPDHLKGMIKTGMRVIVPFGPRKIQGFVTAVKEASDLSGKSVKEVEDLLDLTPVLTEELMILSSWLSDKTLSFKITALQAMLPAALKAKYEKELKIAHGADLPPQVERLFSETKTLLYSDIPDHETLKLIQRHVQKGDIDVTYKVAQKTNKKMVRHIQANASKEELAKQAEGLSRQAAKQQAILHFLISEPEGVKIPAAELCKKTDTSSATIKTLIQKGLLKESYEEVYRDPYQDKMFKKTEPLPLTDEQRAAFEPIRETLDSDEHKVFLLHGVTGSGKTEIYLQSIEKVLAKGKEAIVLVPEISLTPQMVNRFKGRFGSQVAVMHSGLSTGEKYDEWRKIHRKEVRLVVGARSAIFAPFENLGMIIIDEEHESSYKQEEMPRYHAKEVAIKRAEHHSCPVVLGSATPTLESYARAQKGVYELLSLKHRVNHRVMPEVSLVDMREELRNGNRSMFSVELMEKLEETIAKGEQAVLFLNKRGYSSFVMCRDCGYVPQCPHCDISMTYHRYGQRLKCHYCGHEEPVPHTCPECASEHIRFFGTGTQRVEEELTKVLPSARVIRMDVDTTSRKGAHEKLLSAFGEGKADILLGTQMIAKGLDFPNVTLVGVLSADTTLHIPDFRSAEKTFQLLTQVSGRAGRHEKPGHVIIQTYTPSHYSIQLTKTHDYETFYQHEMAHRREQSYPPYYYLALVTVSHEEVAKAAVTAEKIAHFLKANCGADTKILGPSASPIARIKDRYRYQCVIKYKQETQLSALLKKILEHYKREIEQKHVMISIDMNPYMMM

RarA;SsbA = target: T4, RarA;SsbA (Bacillus subtilis;Bacillus subtilis, UniProt O34528;P37455 1-421;1-172, |); assay: EMSA
T4 sequence 1: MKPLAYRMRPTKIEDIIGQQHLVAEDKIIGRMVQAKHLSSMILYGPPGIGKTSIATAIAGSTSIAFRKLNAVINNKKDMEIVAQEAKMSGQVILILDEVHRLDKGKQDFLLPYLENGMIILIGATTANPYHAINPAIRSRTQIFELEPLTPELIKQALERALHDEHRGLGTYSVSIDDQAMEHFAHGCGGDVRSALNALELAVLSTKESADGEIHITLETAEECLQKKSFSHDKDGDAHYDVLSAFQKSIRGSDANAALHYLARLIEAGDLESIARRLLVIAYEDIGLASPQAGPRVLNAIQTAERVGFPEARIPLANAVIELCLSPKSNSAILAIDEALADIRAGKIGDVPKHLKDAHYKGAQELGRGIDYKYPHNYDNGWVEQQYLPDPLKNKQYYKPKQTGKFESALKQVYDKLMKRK
T4 sequence 2: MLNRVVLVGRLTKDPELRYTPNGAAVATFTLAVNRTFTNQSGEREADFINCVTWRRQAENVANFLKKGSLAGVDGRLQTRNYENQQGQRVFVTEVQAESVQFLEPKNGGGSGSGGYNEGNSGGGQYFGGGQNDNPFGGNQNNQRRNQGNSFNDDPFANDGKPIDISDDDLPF

RarA = target: T5, RarA (Bacillus subtilis, UniProt O34528 1-421); assay: EMSA
T5 sequence: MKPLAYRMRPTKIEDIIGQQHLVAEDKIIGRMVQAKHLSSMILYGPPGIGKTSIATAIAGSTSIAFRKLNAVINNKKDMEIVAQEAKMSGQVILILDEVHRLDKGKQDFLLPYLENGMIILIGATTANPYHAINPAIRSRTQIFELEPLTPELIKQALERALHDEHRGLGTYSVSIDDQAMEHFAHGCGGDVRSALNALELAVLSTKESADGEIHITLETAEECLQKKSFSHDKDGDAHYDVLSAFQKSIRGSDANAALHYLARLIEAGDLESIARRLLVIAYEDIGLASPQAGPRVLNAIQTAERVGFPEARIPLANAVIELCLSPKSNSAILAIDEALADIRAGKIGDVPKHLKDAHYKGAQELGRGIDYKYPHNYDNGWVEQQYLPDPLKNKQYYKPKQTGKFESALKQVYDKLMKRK

[1] = target: T6, Bacillus subtilis RarA (replication associated recombination protein A) (B. subtilis, UniProt O34528 1-421); assay: native gel or EMSA
T6 sequence (looked up): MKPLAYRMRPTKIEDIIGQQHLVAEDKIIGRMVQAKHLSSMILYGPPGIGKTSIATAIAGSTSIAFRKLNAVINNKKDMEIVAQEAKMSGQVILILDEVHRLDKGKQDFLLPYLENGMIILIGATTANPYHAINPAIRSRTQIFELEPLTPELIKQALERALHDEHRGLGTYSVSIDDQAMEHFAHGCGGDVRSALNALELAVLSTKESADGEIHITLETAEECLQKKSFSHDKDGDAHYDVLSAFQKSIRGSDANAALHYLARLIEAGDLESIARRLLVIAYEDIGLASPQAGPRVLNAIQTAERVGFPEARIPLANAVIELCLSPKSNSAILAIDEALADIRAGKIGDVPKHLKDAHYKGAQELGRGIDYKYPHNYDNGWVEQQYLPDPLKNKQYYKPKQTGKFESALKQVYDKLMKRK

[2] = target: T7, Bacillus subtilis RarA K51A (Walker A motif mutant) (B. subtilis, UniProt O34528 1-421, K51A); assay: native gel or EMSA
T7 sequence (looked up): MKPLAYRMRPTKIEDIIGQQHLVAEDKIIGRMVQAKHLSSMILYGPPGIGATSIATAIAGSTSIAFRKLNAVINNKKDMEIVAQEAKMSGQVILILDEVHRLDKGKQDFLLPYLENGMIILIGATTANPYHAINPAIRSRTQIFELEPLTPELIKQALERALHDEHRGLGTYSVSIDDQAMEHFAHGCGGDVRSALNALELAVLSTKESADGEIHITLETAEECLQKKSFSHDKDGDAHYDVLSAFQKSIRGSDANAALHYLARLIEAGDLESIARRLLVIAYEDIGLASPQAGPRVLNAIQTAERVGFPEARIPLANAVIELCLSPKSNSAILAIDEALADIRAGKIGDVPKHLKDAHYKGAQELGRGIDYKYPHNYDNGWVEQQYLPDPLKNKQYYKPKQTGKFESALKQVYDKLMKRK

B1: replicated fork (F1/F2/F3) (dsDNA)
DNA 1: TATAAAAAAAGCCAAGCTTGCATGCCTGCAGGTCGACTCTAGAGGATCCCCGGGTACCGAGCTCGAATTCACTGGCCGTCGTTTTACAACG
DNA 2: AATTCGTTGTAAAACGACGGCCAGTGAATTCGAGCTCGGTACCCGCCAGCCACAGTCAGACACACACACACTACACACAAAAAAAAAAA
DNA 3: TTTTTTTTTTTGTGTGTAGTGTGTGTGTGTCTGACTGTGGCTGG
With B1 the binding result (SsbA) was “binds”, the binding result (RarA;PriA) was “binds” and the Kd (PriA) was roughly 0.003 µM. The binding result (RarA;SsbA) was “binds” and the Kd (RarA) was roughly 0.019 µM.

B2: Bacillus subtilis SsbA (single stranded binding protein A) (natural protein, B. subtilis, UniProt P37455 1-172, looked up)
chain: MLNRVVLVGRLTKDPELRYTPNGAAVATFTLAVNRTFTNQSGEREADFINCVTWRRQAENVANFLKKGSLAGVDGRLQTRNYENQQGQRVFVTEVQAESVQFLEPKNGGGSGSGGYNEGNSGGGQYFGGGQNDNPFGGNQNNQRRNQGNSFNDDPFANDGKPIDISDDDLPF
B2: binds [1]; binds [2].

B3: SsbBA chimera (SsbB with the last 9 terminal acidic residues of SsbA) (other, B. subtilis, UniProt C0SPB6 1-113, looked up)
chain: MFNQVMLVGRLTKDPDLRYTSAGAAVAHVTLAVNRSFKNASGEIEADYVNCTLWRKTAENTALYCQKGSLVGVSGRIQTRSYENEEGVNVYVTEVLADTVRFMDPKPREKAADDISDDDLPF
B3: binds [1].
